In US20170165338A1:

Target: HLA-A*24 (human)
Experiment: UV-exchange b2m ELISA

Binder	peptide exchange yield
VYTLDIPVL	> 75%
QYLENLEKL	50 to 75%
IFLDYEAGTLSF	> 75%
QYSSVFKSL	> 75%
DYLKGLASF	> 75%
RYSTGLAGNLL	50 to 75%
EYNQWFTKL	50 to 75%
LYIDRPLPYL	50 to 75%
IYSWILDHF	> 75%
KYQDILETI	> 75%
LYLDKATLI	50 to 75%
KYIPYKYVI	50 to 75%
VYWDSAGAAHF	> 75%
WYVNGVNYF	20 to 49%
TYSVSFPMF	> 75%
YFIDSTNLKTHF	50 to 75%
RFHPTPLLL	> 75%
EYINQGDLHEF	50 to 75%
TYTQDFNKF	50 to 75%
LYLKLWNLI	50 to 75%
KFSSFSLFF	50 to 75%
KYMVYPQTF	> 75%
EYQENFLSF	50 to 75%
YFDKVVTL	20 to 49%
NYINRILKL	> 75%

Binder	peptide exchange yield
IYTMIYRNL	> 75%
KYPVEWAKF	> 75%
RYAEEVGIF	50 to 75%
AYVVFVSTL	20 to 49%
RYPDNLKHL	20 to 49%
AYLHSHALI	> 75%
EYSLFPGQVVI	50 to 75%
DYTTWTALL	> 75%
YYLEVGKTLI	> 75%
VYGFQWRHF	> 75%
YYVESGKLF	> 75%
TYELRYFQI	> 75%
TYGDAGLTYTF	50 to 75%
TYLRDQHFL	> 75%
LYHDIFSRL	> 75%
VHIPEVYLI	50 to 75%
VYRDETGELF	50 to 75%
EYPLVINTL	50 to 75%
IYATEAHVF	50 to 75%
RYPDNLKHLYL	> 75%
RYISDQLFTNF	> 75%
YYVYIMNHL	50 to 75%
YYEVHKELF	> 75%
SYALLTYMI	> 75%
IYLVSIPEL	> 75%

Binder	peptide exchange yield
KYTSWYVAL	> 75%
YYGPSLFLL	50 to 75%
VFTRVSSFL	50 to 75%
VFKASKITF	50 to 75%
VYVGGGQIIHL	50 to 75%
YYKSTSSAF	50 to 75%
EFGSLHLEFL	< 20%
VYEDQVGKF	20 to 49%
TYKDEGNDYF	50 to 75%
LFIPSSKLLFL	50 to 75%
LYNKGFIYL	> 75%
TYIKPISKL	50 to 75%
FYSRLLQKF	50 to 75%
TFSVSSHLF	50 to 75%
AYTLIAPNI	50 to 75%
GFFIFNERF	50 to 75%
VYVSDIQEL	50 to 75%
HYSQELSLLYL	> 75%
RYFKGLVF	50 to 75%
QYLGQIQHI	50 to 75%
KFVDSTFYL	> 75%
QYLQDAYSF	> 75%
TYIESASEL	50 to 75%
FFPPTRQMGLLF	> 75%
RYLNKAFHI	50 to 75%
